Source: PMC5495335

Target: T1, CD6 lymphocyte surface receptor (human (endogenous in PBMC)) (UniProt P30203)
T1 sequence: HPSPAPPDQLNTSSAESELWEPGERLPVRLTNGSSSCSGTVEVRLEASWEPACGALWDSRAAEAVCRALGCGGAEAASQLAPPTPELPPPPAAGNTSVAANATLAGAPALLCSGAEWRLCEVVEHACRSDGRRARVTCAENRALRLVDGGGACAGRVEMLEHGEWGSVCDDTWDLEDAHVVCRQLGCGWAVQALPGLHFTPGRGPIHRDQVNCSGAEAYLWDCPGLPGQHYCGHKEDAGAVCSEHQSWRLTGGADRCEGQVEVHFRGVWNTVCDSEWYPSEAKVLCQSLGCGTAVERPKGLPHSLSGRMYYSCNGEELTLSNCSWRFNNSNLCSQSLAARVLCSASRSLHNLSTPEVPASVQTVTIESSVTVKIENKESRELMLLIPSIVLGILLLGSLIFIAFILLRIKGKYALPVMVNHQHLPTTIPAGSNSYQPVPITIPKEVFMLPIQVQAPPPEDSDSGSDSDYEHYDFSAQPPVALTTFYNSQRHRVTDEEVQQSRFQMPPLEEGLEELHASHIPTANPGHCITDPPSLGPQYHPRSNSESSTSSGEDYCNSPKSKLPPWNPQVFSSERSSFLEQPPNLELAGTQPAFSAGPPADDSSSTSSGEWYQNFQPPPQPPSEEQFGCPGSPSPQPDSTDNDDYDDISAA

tyrosine phosphorylation of CD6 immunoprecipitated from human PBMC plated on plate-bound ALCAM (immunoblot for p-Tyr): > 2.5 fold
B1: Recombinant Human ALCAM/CD166 Fc Chimera (Fc fusion)
chain: WYTVNSAYGDTIIIPCRLDVPQNLMFGKWKYEKPDGSPVFIAFRSSTKKSVQYDDVPEYKDRLNLSENYTLSISNARISDEKRFVCMLVTEDNVFEAPTIVKVFKQPSKPEIVSKALFLETEQLKKLGDCISEDSYPDGNITWYRNGKVLHPLEGAVVIIFKKEMDPVTQLYTMTSTLEYKTTKADIQMPFTCSVTYYGPSGQKTIHSEQAVFDIYYPTEQVTIQVLPPKNAIKEGDNITLKCLGNGNPPPEEFLFYLPGQPEGIRSSNTYTLTDVRRNATGDYKCSLIDKKSMIASTAITVHYLDLSLNPSGEVTRQIGDALPVSCTISASRNATVVWMKDNIRLRSSPSFSSLHYQDAGNYVCETALQEVEGLKKRESLTLIVEGKPQIKMTKKTDPSGLSKTIICHVEGFPKPAIQWTITGSGSVINQTEESPYINGRYYSKIIISPEENVTLTCTAENQLERTVNSLNVSAISIPEHDEADEISDENREKVNDQAK
